Legend:
[1] = target: Bxy_22780 E350G mutant (nucleophile mutant) (Bacteroides xylanisolvens); test: crystal structure; E350G mutant, ligand-free; 10–11 mg/ml in 50 mM MOPS (pH 7.5), 300 mM NaCl; reservoir 0.2 M sodium citrate tribasic dihydrate, 20% PEG 3350, 100 mM bis–Tris propane (pH 7.5); 20 °C; oligomeric state from PISA server analysis of the crystal structure
[2] = target: Bxy_22780 (GH35 β-1,2-galactosidase from Bacteroides xylanisolvens), wild type (Bacteroides xylanisolvens); test: crystal structure; WT enzyme co-crystallised with 20 mM galactose or MeβGal; reservoir 0.35 M potassium thiocyanate, 12% PEG 3350; 20 °C; oligomeric state from PISA server analysis of the crystal structures
[3] = substrate: C[C@H]1O[C@@H](Oc2ccc([N+](=O)[O-])cc2)[C@H](O)[C@@H](O)[C@H]1O; test: hydrolysis kinetics (read-out for this constant not clearly told); format: biochemical, Bacteroides xylanisolvens; details: kinetic assays at pH 7.5, 30 °C
Source text: hydrolysis kinetics (read-out for this constant not clearly told) on Bxy_22780

[4] = substrate: O=[N+]([O-])c1ccc(O[C@@H]2O[C@H](CO)[C@H](O)[C@H](O)[C@H]2O)cc1; test: purified protein; details: hydrolysis, kinetic assays at pH 7.5, 30 °C

Bxy_22780 E350G mutant (nucleophile mutant) (enzyme)
stoichiometry N [1]: 4

Bxy_22780 (GH35 β-1,2-galactosidase from Bacteroides xylanisolvens), wild type (enzyme)
stoichiometry N [2]: 4

B1: Bxy_22780 (Bacteroides xylanisolvens XB1A) (protein)
chain: RPPMYTSTNTEVPSRLVKNEHGSWQLIVNGKPFIMLAGELHNSSASTTEYLNSLWTSLKTLNLNTVLAPIAWEQFEPQEGIFDYTLINNMIDGARKNGFKLSILWFGSWKNGESSYAPTWVKEDTKRFFRVKSVEGKEIETISPFCENAMKADAKAFKTLVEHIKKVDQATGTVIALQPENEVGIFQGMDYSKASLAAYEQEVPQALIQYMKKNRKNLRKELLSVWEENGARTSGAWKTVFGDNAWSKSFYTTWQYATYIDFISAGAKEIYPLPTFCNCWLVQKPDDMPGVYPNGGPVSRVMDIWKAAAPHIDVLAPDIYLSDFKNIVADYHRADNPLLIPEAVMKPANAFWAFGEHSALCYSPFGIEDGADNFVFAQSYKVLNELIPLISEHQGSDRMIGVMKMPGESERTVTMGDYQLCIKYDAEDAYGLIIQTGKNEFVVAGINFKVYFTSTDKKKTGYIKQVWEGGYDTDGEWKATRLLNGDETYHNAVLIAKGRRTFTSEKSNNYNADHSDEIFVYSPTSYQAVWSPGIYRVTTYLR
notes: N-terminal signal peptide (22 residues, counted with the 14 upstream residues) removed; C-terminal His6-tag (pET30a), E. coli BL21(DE3); homotetramer, D494 of a neighbouring subunit contacts subsite -1
Km [3]: 7.95 ± 0.46 mM
Vmax [3]: 14 µmol/min/mg
Vmax/Km [3]: 1760 µL/min/mg
Km [4]: 3.49 ± 0.53 mM
Vmax [4]: 21.2 µmol/min/mg
Vmax/Km [4]: 6080 µL/min/mg
